# Assay results from the RNAGym collection of RNA variant scans (doi:10.7554/elife.80360).
# B1: Twister Ribozyme (parent)
# chain: AACACUGCCAAUGCCGGUCCCAAGCCCGGAUAAAAGUGGAGGGGGCGG
# Variants of: B1
# Experiment: self-cleavage, relative activity (ratio to wild type); higher = more cleavage; co-transcriptional
row,Variant,self-cleavage
1,UACACUGCCAAUGCCGGUCCCAAGCCCGGAUAACAGUGGAGGGGGCGG [A1U A34C],0.092
2,UACACUGCCAAUGCCGGUCCCAAGCCCGGAUAAACGUGGAGGGGGCGG [A1U A35C],0.0998
3,UACACUGCCAAUGCCGGUCCCAAGCCCGGAUAAAGGUGGAGGGGGCGG [A1U A35G],0.025
4,UACACUGCCAAUGCCGGUCCCAAGCCCGGAUAAAAGUGGGGGGGGCGG [A1U A40G],0.074
5,UACACUGCCAAUGCCGGUCCCAAGCCCGGAUAAAAGUGGUGGGGGCGG [A1U A40U],0.0682
6,UAAACUGCCAAUGCCGGUCCCAAGCCCGGAUAAAAGUGGAGGGGGCGG [A1U C3A],0.222
7,UACAGUGCCAAUGCCGGUCCCAAGCCCGGAUAAAAGUGGAGGGGGCGG [A1U C5G],0.0467
8,UACACUGCGAAUGCCGGUCCCAAGCCCGGAUAAAAGUGGAGGGGGCGG [A1U C9G],0.0577
9,UACACUGCCAAUGACGGUCCCAAGCCCGGAUAAAAGUGGAGGGGGCGG [A1U C14A],0.0917
10,UACACUGCCAAUGGCGGUCCCAAGCCCGGAUAAAAGUGGAGGGGGCGG [A1U C14G],0.0363
11,UACACUGCCAAUGCAGGUCCCAAGCCCGGAUAAAAGUGGAGGGGGCGG [A1U C15A],0.0603
12,UACACUGCCAAUGCGGGUCCCAAGCCCGGAUAAAAGUGGAGGGGGCGG [A1U C15G],0.0744
13,UACACUGCCAAUGCCGGUCACAAGCCCGGAUAAAAGUGGAGGGGGCGG [A1U C20A],0.0791
14,UACACUGCCAAUGCCGGUCCGAAGCCCGGAUAAAAGUGGAGGGGGCGG [A1U C21G],0.0652
15,UACACUGCCAAUGCCGGUCCUAAGCCCGGAUAAAAGUGGAGGGGGCGG [A1U C21U],0.0559
16,UACACUGCCAAUGCCGGUCCCAAGACCGGAUAAAAGUGGAGGGGGCGG [A1U C25A],0.0664
17,UACACUGCCAAUGCCGGUCCCAAGCGCGGAUAAAAGUGGAGGGGGCGG [A1U C26G],0.0605
18,UACACUGCCAAUGCCGGUCCCAAGCUCGGAUAAAAGUGGAGGGGGCGG [A1U C26U],0.0863
19,UACACUGCCAAUGCCGGUCCCAAGCCAGGAUAAAAGUGGAGGGGGCGG [A1U C27A],0.0592
20,UACACUGCCAAUGCCGGUCCCAAGCCCGGAUAAAAGUGGAGGGGGUGG [A1U C46U],0.0668
21,UACACUCCCAAUGCCGGUCCCAAGCCCGGAUAAAAGUGGAGGGGGCGG [A1U G7C],0.0703
22,UACACUGCCAAUGCCUGUCCCAAGCCCGGAUAAAAGUGGAGGGGGCGG [A1U G16U],0.0446
23,UACACUGCCAAUGCCGCUCCCAAGCCCGGAUAAAAGUGGAGGGGGCGG [A1U G17C],0.055
24,UACACUGCCAAUGCCGUUCCCAAGCCCGGAUAAAAGUGGAGGGGGCGG [A1U G17U],0.0683
25,UACACUGCCAAUGCCGGUCCCAAACCCGGAUAAAAGUGGAGGGGGCGG [A1U G24A],0.062
26,UACACUGCCAAUGCCGGUCCCAAGCCCCGAUAAAAGUGGAGGGGGCGG [A1U G28C],0.0644
27,UACACUGCCAAUGCCGGUCCCAAGCCCUGAUAAAAGUGGAGGGGGCGG [A1U G28U],0.0658

row,Variant,self-cleavage
1,UACACUGCCAAUGCCGGUCCCAAGCCCGAAUAAAAGUGGAGGGGGCGG [A1U G29A],0.0545
2,UACACUGCCAAUGCCGGUCCCAAGCCCGGAUAAAAAUGGAGGGGGCGG [A1U G36A],0.0371
3,UACACUGCCAAUGCCGGUCCCAAGCCCGGAUAAAAGUUGAGGGGGCGG [A1U G38U],0.0843
4,UACACUGCCAAUGCCGGUCCCAAGCCCGGAUAAAAGUGAAGGGGGCGG [A1U G39A],0.0588
5,UACACUGCCAAUGCCGGUCCCAAGCCCGGAUAAAAGUGCAGGGGGCGG [A1U G39C],0.0764
6,UACACUGCCAAUGCCGGUCCCAAGCCCGGAUAAAAGUGGAGAGGGCGG [A1U G42A],0.0707
7,UACACUGCCAAUGCCGGUCCCAAGCCCGGAUAAAAGUGGAGUGGGCGG [A1U G42U],0.0745
8,UACACUGCCAAUGCCGGUCCCAAGCCCGGAUAAAAGUGGAGGCGGCGG [A1U G43C],0.0749
9,UACACUGCCAAUGCCGGUCCCAAGCCCGGAUAAAAGUGGAGGGCGCGG [A1U G44C],0.0624
10,UACACUGCCAAUGCCGGUCCCAAGCCCGGAUAAAAGUGGAGGGUGCGG [A1U G44U],0.0595
11,UACACUGCCAAUGCCGGUCCCAAGCCCGGAUAAAAGUGGAGGGGCCGG [A1U G45C],0.0573
12,UACACUGCCAAUGCCGGUCCCAAGCCCGGAUAAAAGUGGAGGGGUCGG [A1U G45U],0.0565
13,UACACUGCCAAUGCCGGUCCCAAGCCCGGAUAAAAGUGGAGGGGGCAG [A1U G47A],0.0626
14,UACACUGCCAAUGCCGGUCCCAAGCCCGGAUAAAAGUGGAGGGGGCUG [A1U G47U],0.0673
15,UACACUGCCAAUGCCGGUCCCAAGCCCGGAUAAAAGUGGAGGGGGCGA [A1U G48A],0.0713
16,UACACUGCCAAUGCCGGUCCCAAGCCCGGAUAAAAGUGGAGGGGGCGC [A1U G48C],0.0772
17,UACACUGCCAAUGCCGGUCCCAAGCCCGGAUAAAAGUGGAGGGGGCGU [A1U G48U],0.0644
18,UACACUGCCAAAGCCGGUCCCAAGCCCGGAUAAAAGUGGAGGGGGCGG [A1U U12A],0.0685
19,UACACUGCCAACGCCGGUCCCAAGCCCGGAUAAAAGUGGAGGGGGCGG [A1U U12C],0.0693
20,UACACUGCCAAGGCCGGUCCCAAGCCCGGAUAAAAGUGGAGGGGGCGG [A1U U12G],0.0921
21,UACACUGCCAAUGCCGGACCCAAGCCCGGAUAAAAGUGGAGGGGGCGG [A1U U18A],0.0328
22,UACACUGCCAAUGCCGGCCCCAAGCCCGGAUAAAAGUGGAGGGGGCGG [A1U U18C],0.054
23,UACACUGCCAAUGCCGGGCCCAAGCCCGGAUAAAAGUGGAGGGGGCGG [A1U U18G],0.0681
24,UACACUGCCAAUGCCGGUCCCAAGCCCGGAAAAAAGUGGAGGGGGCGG [A1U U31A],0.0544
25,UACACUGCCAAUGCCGGUCCCAAGCCCGGAGAAAAGUGGAGGGGGCGG [A1U U31G],0.0468
26,UACACUGCCAAUGCCGGUCCCAAGCCCGGAUAAAAGAGGAGGGGGCGG [A1U U37A],0.0677
27,UACACUGCCAAUGCCGGUCCCAAGCCCGGAUAAAAGGGGAGGGGGCGG [A1U U37G],0.0556
